Measured values as given in patent US20190125833A1.

Legend:
[1] = biological target: Myostatin (UniProt O14793); assay: SPR (Biacore T100), myostatin injected, Langmuir 1:1 model
[2] = biological target: Myostatin (UniProt O14793); assay: SPR (Biacore T100): Fc fusion captured by anti-human antibody on a CM4 chip, myostatin injected as analyte, Langmuir 1:1 model
[3] = biological target: Myostatin (UniProt O14793); assay: cell-based or functional assay

Activin Receptor 2B-FC (Fc fusion), sequence (Q13705 19-137): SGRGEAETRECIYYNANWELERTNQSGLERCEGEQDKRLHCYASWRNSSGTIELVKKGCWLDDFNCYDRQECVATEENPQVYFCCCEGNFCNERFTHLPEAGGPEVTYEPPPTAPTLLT
Myostatin, sequence (O14793 267-375 limits assumed): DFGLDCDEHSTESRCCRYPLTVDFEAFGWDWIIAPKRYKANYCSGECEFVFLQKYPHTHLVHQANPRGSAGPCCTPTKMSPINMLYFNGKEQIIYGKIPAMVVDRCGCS

| Substance | Kd [1] [nM] | koff [2] [s⁻¹] | kon [2] [M⁻¹ s⁻¹] | IC50 of inhibition of myostatin dependent SMAD2/3 activation (luciferase reporter, HEK293, 0.1 nM myostatin) [3] [nM] |
| --- | --- | --- | --- | --- |
| Activin Receptor 2B-FC (Fc fusion) | 2.5 | 0.00098 | 390000 |  |
| hNOPE (1-620) ECD-FC (Fc fusion) |  |  |  | 0.17 |
